Test results: patent publication US20160176984A1 (published 2016)
Substitutions are numbered along the chain they refer to.

Legend:
wild type Fcab = target: T1, wild type Fcab (human, UniProt P0DOX5 218-449 = IgG part); test: SPR (Biacore), Fcab captured on Protein A chip, human soluble CD64 at 5 ug/ml as analyte
T1 construct: also called Fcab wt; wtFcab

[1] = target: T2, Fcab wt expressed on yeast (human, UniProt P0DOX5 218-449 = IgG part); test: FACS of yeast-displayed Fcab wt, CD64 staining
T2 construct: also called non-randomized Fc fragments (Fcab wt) expressed on yeast; not shown: Aga2 display fusion partner of the pYD1-derived vector

[2] = target: T3, Her-2 on Her-2 over-expressing human breast cancer cell lines SKBR3 and Calu-3 (human, UniProt P04626 23-1255); test: FACS on SKBR3 cells, anti-human Fc-PE detection
T3 construct: whole, on cells; also called Her-2 on SKBR3 cells
Experimental: (§1) Antigen binding was also determined by SPR. Biacore CM5 chips were coated with different amounts of human soluble Her-2 followed by addition of increasing concentrations of Fcabs. […] Antigen binding was also assessed by FACS using the Her-2 over-expressing human breast cancer cell lines SKBR3 and Calu-3. 1×10⁵ cells were incubated with increasing concentrations of Fcabs for 60 minutes on ice. Then, unbound antibodies were removed by centrifugation and washing. Cell bound Fcabs were detected by incubation with anti-human Fc specific antibodies conjugated to phycoerythrin (Sigma) for 60 minutes on ice. After washing the cells, the intensity of fluorescence on the cell surface was measured in a FACS Calibur instrument (Beckton Dickinson).

[3] = target: T3, Her-2 on Her-2 over-expressing human …; test: cell-based or functional assay
[4] = target: T4, Human soluble Her-2 (Bender Med Systems, Austria) (human, UniProt P04626 23-652, limits assumed); test: ELISA, human soluble Her-2 coated at 2 ug/ml, anti-Fc CH2-HRP detection
T4 construct: given only as 'human soluble Her-2'; It was biotinylated (sulfo-LC-LC-biotin) for the yeast FACS selections; also called recombinant antigen Her2 (Bendermedsystems); Her2-biotin
Experimental: Human soluble Her-2 (Bender Med Systems, Austria) was coated to plastic at 2 μg/ml. After washing and blocking unspecific binding sites, increasing concentrations of Fcabs were added. To detect Her-2 bound Fcabs, anti-Fc CH2 domain specific monoclonal antibodies which were conjugated to horse radish peroxidase (Serotec) were added.

[5] = target: T4, Human soluble Her-2 (Bender Med …); test: SPR (Biacore), human soluble Her-2 on CM5 chip, Fcab as analyte
Experimental: as §1

[6] = target: T4, Human soluble Her-2 (Bender Med …); test: assay not stated; told under affinity maturation and FACS selection with Her2

B1: human soluble CD64 (receptor, UniProt P12314 16-288, looked up)
chain: QVDTTKAVITLQPPWVSVFQEETVTLHCEVLHLPGSSSTQWFLNGTATQTSTPSYRITSASVNDSGEYRCQRGLSGRSDPIQLEIHRGWLLLQVSSRVFTEGEPLALRCHAWKDKLVYNVLYYRNGKAFKFFHWNSNLTILKTNISHNGTYHCSGMGKHRYTSAGISVTVKELFPAPVLNASVTSPLLEGNLVTLSCETKLLLQRPGLQLYFSFYMGSKTLRGRNTSSEYQILTARREDSGLYWCEAATEDGNVLKRSPELELQVLGLQLPTP
notes: also called CD64 (R&D Systems)
Question: Does B1 bind (wild type Fcab)?
Answer: binds

Question: Does B1 bind [1]?
Answer: binds

B2: ABEFs0101 (designed binder)
chain: EPKSCDKTHTCPPCPAPELLGGPSVFLFPPKPKDTLMISRTPEVTCVVVDVSHEDPEVKFNWYVDGVEVHNAKTKPREEQYNSTYRVVSVLTVLHQDWLNGKEYKCKVSNKALPAPIEKTISKAKGQPREPQVYTLPPSRDEYLHGDVSLTCLVKGFYPSDIAVEWESNGQPENNYKTTPPVLDSDGSFFLYSKLTVARYSPSMWRWGHGNVFSCSVMHEALHNHYTQKSLSLSPGK
notes: The EF loop is given with 13 residues under 'AA198ff'
Question: Which results are given for B2?
Answer: EC50 [2]: 5.2 nM; SKBR3 cell killing (ADCC with human NK cells, 7-AAD/CFSE FACS), EC50 [3]: 1 nM; EC50 [4]: 16.1 nM

B3: H10-03-6 (designed binder)
chain: B2 chain with A198P, Y200H, P202A, S203R, G208A
notes: Soluble Fcab; The EF loop is given with 13 residues under 'AA198ff'; also called H10-03-6 clone
Question: B3 was tested. Which EC50 [2] did it give?
Answer: 10.3 nM

Question: What about the “SKBR3 cell killing (ADCC with human NK cells, 7-AAD/CFSE FACS), EC50” value [3] of the same binder?
Answer: 1.1 nM

Question: What about the EC50 [4] of the same binder?
Answer: 4.8 nM

Question: What about the Kd [5] of the same binder?
Answer: 8.6 nM

Question: And the EC50 [6]?
Answer: 18.9 nM
